Legend:
[1] = target: T1, TIAH/LH, MMP2 selective substrate
T1 chain: TIAHLH

[2] = target: T2, YGRAAA (SEQ ID NO: 17), uPA selective substrate
T2 chain: YGRAAA

B1: MMP-2 (protein)
chain: YNFFPRKPKWDKNQITYRIIGYTPDLDPETVDDAFARAFQVWSDVTPLRFSRIHDGEADIMINFGRWEHGDGYPFDGKDGLLAHAFAPGTGVGGDSHFDDDELWTLGEGQVVRVKYGNADGEYCKFPFLFNGKEYNSCTDTGRSDGFLWCSTTYNFEKDGKYGFCPHEALFTMGGNAEGQPCKFPFRFQGTSYDSCTTEGRTDGYRWCGTTEDYDRDKKYGFCPETAMSTVGGNSEGAPCVFPFTFLGNKYESCTSAGRSDGKMWCATTANYDDDRKWGFCPDQGYSLFLVAAHEFGHAMGLEHSQDPGALMAPIYTYTKNFRLSQDDIKGIQELYGASPDIDLGTGPTPTLGPVTPEICKQDIVFDGIAQIRGEIFFFKDRFIWRTVTPRDKPMGPLLVATFWPELPEKIDAVYEAPQEEKAVFFAGNEYWIYSASTLERGYPKPLTSLGLPPDVQRVDAAFNWSKNKKTYIFAGDKFWRYNEVKKKMDPGFPKLIADAWNAIPDNLDAVVDLQGGGHSYFFKGAYYLKLENQSLKSVKFGSIKSDWLGC
[1]
  cleavage of ACPP substrate by protease: selectively cleaved by MMP-2 versus 9 and 14

B2: tissue plasminogen activator (tPA) (protein)
chain: SYQVICRDEKTQMIYQQHQSWLRPVLRSNRVEYCWCNSGRAQCHSVPVKSCSEPRCFNGGTCQQALYFSDFVCQCPEGFAGKCCEIDTRATCYEDQGISYRGTWSTAESGAECTNWNSSALAQKPYSGRRPDAIRLGLGNHNYCRNPDRDSKPWCYVFKAGKYSSEFCSTPACSEGNSDCYFGNGSAYRGTHSLTESGASCLPWNSMILIGKVYTAQNPSAQALGLGKHNYCRNPDGDAKPWCHVLKNRRLTWEYCDVPSCSTCGLRQYSQPQFRIKGGLFADIASHPWQAAIFAKHRRSPGERFLCGGILISSCWILSAAHCFQERFPPHHLTVILGRTYRVVPGEEEQKFEVEKYIVHKEFDDDTYDNDIALLQLKSDSSRCAQESSVVRTVCLPPADLQLPDWTECELSGYGKHEALSPFYSERLKEAHVRLYPSSRCTSQHLLNRTVTDNMLCAGDTRSGGPQANLHDACQGDSGGPLVCLNDGRMTLVGIISWGLGCGQKDVPGVYTKVTNYLDWIRDNMRP
[2]
  cleavage of ACPP substrate by protease: to a lesser extent by tPA

— patent publication US20160160263
